The source of these data is IntAct's records for PubMed 18084303.

B1: Neuroligin-1 (Mus musculus), Q99K10-1 (parent)
chain: MALPRCMWPNYVWRAMMACVVHRGSGAPLTLCLLGCLLQTFHVLSQKLDDVDPLVTTNFGKIRGIKKELNNEILGPVIQFLGVPYAAPPTGEHRFQPPEPPSPWSDIRNATQFAPVCPQNIIDGRLPEVMLPVWFTNNLDVVSSYVQDQSEDCLYLNIYVPTEDGPLTKKHTDDLGDNDGAEDEDIRDSGGPKPVMVYIHGGSYMEGTGNLYDGSVLASYGNVIVITVNYRLGVLGFLSTGDQAAKGNYGLLDLIQALRWTSENIGFFGGDPLRITVFGSGAGGSCVNLLTLSHYSEGNRWSNSTKGLFQRAIAQSGTALSSWAVSFQPAKYARILATKVGCNVSDTVELVECLQKKPYKELVDQDVQPARYHIAFGPVIDGDVIPDDPQILMEQGEFLNYDIMLGVNQGEGLKFVENIVDSDDGVSASDFDFAVSNFVDNLYGYPEGKDVLRETIKFMYTDWADRHNPETRRKTLLALFTDHQWVAPAVATADLHSNFGSPTYFYAFYHHCQTDQVPAWADAAHGDEVPYVLGIPMIGPTELFPCNFSKNDVMLSAVVMTYWTNFAKTGDPNQPVPQDTKFIHTKPNRFEEVAWTRYSQKDQLYLHIGLKPRVKEHYRANKVNLWLELVPHLHNLNDISQYTSTTTKVPSTDITLRPTRKNSTPVTSAFPTAKQDDPKQQPSPFSVDQRDYSTELSVTIAVGASLLFLNILAFAALYYKKDKRRHDVHRRCSPQRTTTNDLTHAPEEEIMSLQMKHTDLDHECESIHPHEVVLRTACPPDYTLAMRRSPDDIPLMTPNTITMIPNTIPGIQPLHTFNTFTGGQNNTLPHPHPHPHSHSTTRV

Variants of B1 are the subject of this assay. As to conditions: with NRXN1, P58400-1.
Sequence of NRXN1, P58400-1 (P58400 other isoform, or with tags, fused parts or gaps): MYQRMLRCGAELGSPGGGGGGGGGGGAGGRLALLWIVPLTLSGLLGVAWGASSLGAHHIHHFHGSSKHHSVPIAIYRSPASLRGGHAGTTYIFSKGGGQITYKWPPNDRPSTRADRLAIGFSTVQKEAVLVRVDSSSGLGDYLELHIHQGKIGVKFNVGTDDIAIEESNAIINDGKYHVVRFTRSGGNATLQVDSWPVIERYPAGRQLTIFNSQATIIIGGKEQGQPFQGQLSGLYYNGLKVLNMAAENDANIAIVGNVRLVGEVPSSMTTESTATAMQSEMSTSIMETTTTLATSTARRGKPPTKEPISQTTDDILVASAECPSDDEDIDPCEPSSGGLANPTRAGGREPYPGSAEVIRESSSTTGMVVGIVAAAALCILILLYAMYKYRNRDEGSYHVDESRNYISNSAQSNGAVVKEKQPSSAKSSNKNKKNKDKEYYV
For the variant N400A, the “effect of a mutation on the interaction” value was “disrupting interaction”.

Regarding E397A, the “effect of a mutation on the interaction” value was “disrupting interaction”.
